The values below are quoted from earlier work in patent US10195287B2, “Biologically active insulin derivatives” (Chemical & Biopharmaceutical Laboratories of Patras S.A., priority 2013, dated 2019).

This data set deals with human receptor (Homo sapiens, UniProt P06213). Conditions: compared with human insulin.

As to “bovine insulin: animal insulin that varies from human insulin by three amino acids”, the “activity on the human receptor” value is listed as “approximately the same strength”.

Turning to “Porcine insulin: animal insulin with a single amino acid variation from the human variety”, the “activity on the human receptor” value is on record as “approximately the same strength”.
